EGFP fluorescence lifetime data for 1 molecule are collected here from paper PMC7094161, “An Alternative Pin1 Binding and Isomerization Site in the N-Terminus Domain of PSD-95” (Frontiers in Molecular Neuroscience, 2020).

Common to all, as to assay: FRET or BRET; FRET/FLIM: EGFP fluorescence lifetime of EKAR constructs (WW domain and peptide on one chain) in fixed, mounted COS cells; serum in the medium
Holding throughout (conditions): partners not purified
A general note: Bioluminescence resonance energy transfer reports proximity on the nanometre scale.

Test [1] deals with T1, PSD-95 T19 peptide of the EKAR construct (UniProt P31016 14-24).
T1 construct: PSD-95 peptide around T19 put in place of the CDC25C peptide; 11 residues, the text says 10-mer; On one chain with m14 (see its note); also called EKAR T19; EKAR_(cyto)T19; source: COS cells, transfected, in cells
T1 peptide (looked up): YQDEDTPPLEH

In test [2] the target is T2, PSD-95 S25 peptide of the EKAR construct (UniProt P31016 20-30).
T2 construct: PSD-95 peptide around S25 put in place of the CDC25C peptide; On one chain with m14 (see its note); also called EKAR S25; source: COS cells, transfected, in cells
T2 peptide (looked up): PPLEHSPAHLP

Test [3] addresses T3, PSD-95 S35 peptide of the EKAR construct (UniProt P31016 30-40).
T3 construct: PSD-95 peptide around S35 put in place of the CDC25C peptide; On one chain with m14 (see its note); also called EKAR S35; source: COS cells, transfected, in cells
T3 peptide (looked up): PNQANSPPVIV

B1: Pin1 WW domain of the EKAR construct (domain or fragment, UniProt Q13526 5-39, looked up)
chain: EKLPPGWEKRMSRSSGRVYYFNHITNASQWERPSG
notes: Pin1 WW domain as in the EKAR construct (Harvey et al., 2008); source: COS cells, transfected, in cells
For B1, the EGFP fluorescence lifetime in test [1] is 1.72 ns; in test [2], 1.69 ns; in test [3], 1.81 ns.
